Source: article PMC7125023

Target: anti-RSV 2Fc mAb (dual Fc human IgG1, clone B21M variable regions) (human)
Test: SPR

| Kd | stoichiometry N | Substance |
| --- | --- | --- |
| 0.00182 µM | 2.12 FcR:mAb | human FcγRI (from UniProt P12314 16-292) (receptor) |
| 0.121 µM | 4.17 FcR:mAb | human neonatal Fc receptor (FcRn) (from UniProt P55899 24-297) |
